Reference: US20130196923A1, “NOVEL PEPTIDES WHICH HAVE ANALGESIC EFFECTS AND WHICH INHIBIT ASIC CHANNELS” (CENTRE NATIONAL DE LA RESERCHE SCIENTIFIQUE-CNRS, published 2013)
Changes are numbered by the printed parent chain. Like-named read-outs stand apart in the source and are kept apart here.

B1: ASICalgin-2 (π-Dp2) (peptide)
peptide: LKCFQHGKVVTCHRDMKFCYHNTGMPFRNLKLILQGCSSSCSETENNKCCSTDRCNK
B2: ASICalgin-1 (π-Dp1) (peptide)
peptide: B1 peptide with F4Y

Columns and labels:
[1] = target: rat homomeric ASIC1b channel (rat) (UniProt P55926)
[2] = target: human homomeric ASIC1a channel (human, UniProt P78348); assay: cell-based or functional assay
[3] = target: rat heteromeric ASIC1a+ASIC2a channel (rat, UniProt P55926); assay: cell-based or functional assay
[4] = target: rat heteromeric ASIC1a+ASIC1b channel (rat, UniProt P55926); assay: cell-based or functional assay
[5] = target: human heteromeric ASIC1a+ASIC2a channel (human, UniProt P78348); assay: cell-based or functional assay
[6] = target: rat homomeric ASIC1a channel (rat, UniProt P55926); assay: cell-based or functional assay
[7] = target: rat homomeric ASIC1b channel (rat) (UniProt P55926); remark: listed apart in the source

| Molecule | inhibition of the acid-evoked ASIC current, patch clamp whole cell, COS cells [1] | inhibition of the acid-evoked ASIC current, patch clamp whole cell, COS cells [2] | inhibition of the acid-evoked ASIC current, patch clamp whole cell, COS cells [3] | inhibition of the acid-evoked ASIC current, patch clamp whole cell, COS cells [4] | inhibition of the acid-evoked ASIC current, patch clamp whole cell, COS cells [5] | inhibition of the acid-evoked ASIC current, patch clamp whole cell, COS cells [6] | inhibition of the acid-evoked ASIC current, patch clamp whole cell, COS cells [7] |
| --- | --- | --- | --- | --- | --- | --- | --- |
| ASICalgin-1 (π-Dp1) (peptide) | 650 nM | – | – | – | – | – | – |
| B1 | – | 127 nM | 308 nM | 223 nM | 308 nM | 49 nM | 650 nM |
| B2 | – | 127 nM | 308 nM | 223 nM | 308 nM | 49 nM | – |
